Publication PMC7437470

Columns and labels:
[1] = target: Porcine Kallikrein (porcine)
[2] = target: Porcine Kallikrein (porcine); assay: enzyme inhibition kinetics (Morrison equation); serial dilution of the serpin, pre-incubated with the protease before the fluorogenic substrate; kallikrein 15 nM with Gly-Pro-Arg-NHMec 9.1 uM, chymotrypsin 2 ug/mL with Ala-Ala-Pro-Phe-NHMec 42.9 uM; 37°C; sodium acetate buffer pH 7.0; Ki from apparent Ki; triplicate
[3] = target: Bovine α-Chymotrypsin (bovine); assay: as above
Human Chymase (human) = Human Chymase (human) (UniProt P23946)
UniProt P23946, sequence (P23946 22-247): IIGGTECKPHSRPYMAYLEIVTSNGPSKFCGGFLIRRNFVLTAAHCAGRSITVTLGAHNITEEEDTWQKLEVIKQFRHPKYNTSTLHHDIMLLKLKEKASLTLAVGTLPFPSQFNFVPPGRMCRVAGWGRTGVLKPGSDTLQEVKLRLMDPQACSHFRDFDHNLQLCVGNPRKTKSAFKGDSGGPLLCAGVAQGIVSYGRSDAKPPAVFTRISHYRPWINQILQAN

[4] = target: Human Neutrophil elastase (human) (UniProt P08246)
UniProt P08246, sequence (P08246 30-267): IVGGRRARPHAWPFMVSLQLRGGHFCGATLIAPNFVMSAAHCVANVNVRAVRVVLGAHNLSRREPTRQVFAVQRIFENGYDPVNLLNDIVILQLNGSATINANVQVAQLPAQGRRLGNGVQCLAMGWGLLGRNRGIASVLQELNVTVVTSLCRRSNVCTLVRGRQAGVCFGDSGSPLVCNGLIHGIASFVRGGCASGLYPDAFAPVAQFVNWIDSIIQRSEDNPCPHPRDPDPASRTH

[5] = target: Human Cathepsin G (human) (UniProt P08311)
UniProt P08311, sequence (P08311 21-244): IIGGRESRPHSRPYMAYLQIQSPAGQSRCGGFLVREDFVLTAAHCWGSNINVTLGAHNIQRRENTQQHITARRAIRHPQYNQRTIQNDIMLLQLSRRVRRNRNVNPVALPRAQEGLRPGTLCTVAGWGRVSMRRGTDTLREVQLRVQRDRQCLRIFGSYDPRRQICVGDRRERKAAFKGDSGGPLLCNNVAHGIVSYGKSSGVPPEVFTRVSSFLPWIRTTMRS

Porcine Kallikrein (porcine), sequence (P00752 other isoform, or with tags, fused parts or gaps): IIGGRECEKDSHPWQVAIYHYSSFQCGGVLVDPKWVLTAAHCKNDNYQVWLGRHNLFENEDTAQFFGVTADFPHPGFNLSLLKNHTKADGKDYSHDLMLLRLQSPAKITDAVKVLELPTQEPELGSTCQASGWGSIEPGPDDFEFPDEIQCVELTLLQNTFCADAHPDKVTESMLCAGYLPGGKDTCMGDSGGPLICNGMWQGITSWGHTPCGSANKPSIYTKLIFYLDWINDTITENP

recombinant Fasciola hepatica serpin 1 (natural protein)
inhibition of kallikrein (150 nM) activity on a fluorogenic substrate, rFhSrp1 at 10 and 500 nM (48% at 10 nM) [1]: 96%
Ki [2]: 40 nM

recombinant Fasciola hepatica serpin 2 (natural protein)
Ki [3]: 0.07 nM
inhibition of chymase (0.6 uM) activity on a fluorogenic substrate, rFhSrp2 at 10 and 500 nM (only slightly changed at 10 nM) (Human Chymase (human)): 100%
inhibition of neutrophil elastase (50 nM) activity on a fluorogenic substrate, rFhSrp2 at 10 and 500 nM (only slightly changed at 10 nM) [4]: 99.9%
inhibition of cathepsin G (100 nM) activity on a fluorogenic substrate, rFhSrp2 at 10 and 500 nM (only slightly changed at 10 nM) [5]: 97.5%
